# Residue numbers refer to the chain shown, from its start.
# T1: extracellular ActRIIB (SEQ ID NO: 17) fused to the N-terminus of hFc through a GGG linker (human, UniProt Q13705 20-134)
# T1 construct: also called ActRIIB-Fc; not shown: hFc
# T1 sequence: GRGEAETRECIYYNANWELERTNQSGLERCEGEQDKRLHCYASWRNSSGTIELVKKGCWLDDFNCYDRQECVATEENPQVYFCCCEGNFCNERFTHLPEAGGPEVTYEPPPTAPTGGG
# T2: BMP-9, Q9UK05
# T2 chain: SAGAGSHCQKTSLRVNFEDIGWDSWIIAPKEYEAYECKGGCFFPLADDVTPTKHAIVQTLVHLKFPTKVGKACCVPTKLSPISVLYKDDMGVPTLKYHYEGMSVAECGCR
# B1: ActRIIB 2.11 (SEQ ID NO: 14)-Fc (Fc fusion, not shown: a dimerising Fc or GST)
# chain: GRGEAETRECLYYNANWELERTNQSGVERCEGEKDKRLHCYASWRNSSGSLEIVKKGCWLDDFNCYDRTDCVATKENPQVYFCCCEGNMCNERFTHLPEAGGPEVTYEPPPTAPT
# notes: also called ActRIIB 2.11 variant; ActRIIB 2.11-Fc
# B2: ActRIIB 2.12 (SEQ ID NO: 15)-Fc (Fc fusion, not shown: a dimerising Fc or GST)
# chain: B1 chain with T69D, D70T
# notes: also called ActRIIB 2.12 variant; ActRIIB 2.12-Fc
# B3: extracellular ActRIIB variant ActRIIB 2.01 (SEQ ID NO: 4) fused to the N-terminus of hFc through a GGG linker (Fc fusion)
# chain: T1 sequence with T74K, E75K, E76D, N77S, Q79E
# notes: also called ActRIIB 2.01 variant; not shown: hFc
# B4: extracellular ActRIIB variant ActRIIB 2.07 (SEQ ID NO: 10) fused to the N-terminus of hFc through a GGG linker (Fc fusion)
# chain: T1 sequence with Y12F, L19K, E20D, T74K, E75K, E76D, N77S, Q79E
# notes: also called ActRIIB 2.07 variant; not shown: hFc
# B5: extracellular ActRIIB variant ActRIIB 2.08 (SEQ ID NO: 11) fused to the N-terminus of hFc through a GGG linker (Fc fusion)
# chain: T1 sequence with E31Y, E33D, L38R, T74K, E75K, E76D, N77S, Q79E
# notes: also called ActRIIB 2.08 variant; not shown: hFc
# B6: extracellular ActRIIB variant ActRIIB 2.05 (SEQ ID NO: 8) fused to the N-terminus of hFc through a GGG linker (Fc fusion)
# chain: T1 sequence with E31Y, E33D, Q34K, T74K, E75K, E76D, N77S, Q79E
# notes: also called ActRIIB 2.05 variant; not shown: hFc
# B7: extracellular ActRIIB variant ActRIIB 2.06 (SEQ ID NO: 9) fused to the N-terminus of hFc through a GGG linker (Fc fusion)
# chain: T1 sequence with Y41F, R45K, K56Q, T74K, E75K, E76D, N77S, Q79E
# notes: also called ActRIIB 2.06 variant; not shown: hFc
# B8: extracellular ActRIIB variant ActRIIB 2.02 (SEQ ID NO: 5) fused to the N-terminus of hFc through a GGG linker (Fc fusion)
# chain: T1 sequence with S25T, S47I, T74K, E75K, E76D, N77S, Q79E
# notes: also called ActRIIB 2.02 variant; not shown: hFc
# B9: extracellular ActRIIB variant ActRIIB 2.04 (SEQ ID NO: 7) fused to the N-terminus of hFc through a GGG linker (Fc fusion)
# chain: T1 sequence with R29P, T74K, E75K, E76D, N77S, Q79E
# notes: also called ActRIIB 2.04 variant; not shown: hFc
# B10: extracellular ActRIIB variant ActRIIB/A (SEQ ID NO: 2) fused to the N-terminus of hFc through a GGG linker (Fc fusion)
# chain: GRGEAETRECIFYNANWEKDRTNQSGLEPCYGDQDKRRHCFASWKNSSGTIELVKQGCWLDDINCYDRQECVAKKDSPEVYFCCCEGNFCNERFTHLPEAGGPEVTYEPPPTAPTGGG
# notes: also called ActRIIB/A variant; not shown: hFc
# B11: extracellular ActRIIB variant ActRIIB 2.03 (SEQ ID NO: 6) fused to the N-terminus of hFc through a GGG linker (Fc fusion)
# chain: T1 sequence with S25T, S47I, S48T, T74K, E75K, E76D, N77S, Q79E
# notes: also called ActRIIB 2.03 variant; not shown: hFc
# B12: extracellular ActRIIB variant ActRIIBΔ9 (SEQ ID NO: 3) fused to the N-terminus of hFc through a GGG linker (Fc fusion)
# chain: T1 sequence with E20D, F63I, E75K
# notes: also called ActRIIBΔ9 variant; not shown: hFc
# B13: growth differentiation factor 11 (GDF11) (ligand, UniProt O95390 299-407, looked up)
# chain: NLGLDCDEHSSESRCCRYPLTVDFEAFGWDWIIAPKRYKANYCSGQCEYMFMQKYPHTHLVQQANPRGSAGPCCTPTKMSPINMLYFNDKQQIIYGKIPGMVVDRCGCS
# B14: BMP-9 (ligand, UniProt Q9UK05 320-429, looked up)
# chain: T2 chain
# notes: also called bone morphogenetic protein 9
# B15: Activin A (ligand, UniProt P08476 311-426, looked up)
# chain: GLECDGKVNICCKKQFFVSFKDIGWNDWIIAPSGYHANYCEGECPSHIAGTSGSSLSFHSTVINHYRMRGHSPFANLKSCCVPTKLRPMSMLYYDDGQNIIKKDIQNMIVEECGCS
# B16: Activin B (ligand, UniProt P09529 293-407, looked up)
# chain: GLECDGRTNLCCRQQFFIDFRLIGWNDWIIAPTGYYGNYCEGSCPAYLAGVPGSASSFHTAVVNQYRMRGLNPGTVNSCCIPTKLSTMSMLYFDDEYNIVKRDVPNMIVEECGCA
# B17: extracellular ActRIIB variant ActRIIB 2.09 (SEQ ID NO: 12) fused to the N-terminus of hFc through a GGG linker (Fc fusion)
# chain: T1 sequence with I11L, L27V, Q34K, T50S, I51L, L53I, Q69T, E70D, F89M
# notes: also called ActRIIB 2.09 variant; not shown: hFc
# B18: extracellular ActRIIB variant ActRIIB 2.10 (SEQ ID NO: 13) fused to the N-terminus of hFc through a GGG linker (Fc fusion)
# chain: T1 sequence with I11L, L27V, Q34K, T50S, I51L, L53I, Q69D, E70T, F89M
# notes: also called ActRIIB 2.10 variant; not shown: hFc
# B19: extracellular ActRIIA (SEQ ID NO: 16) fused to the N-terminus of hFc through a GGG linker (Fc fusion)
# chain: AILGRSETQECLFFNANWEKDRTNQTGVEPCYGDKDKRRHCFATWKNISGSIEIVKQGCWLDDINCYDRTDCVEKKDSPEVYFCCCEGNMCNEKFSYFPEMEVTQPTSGGG
# notes: also called ActRIIA-Fc; not shown: hFc
# Molecular target: B13
# Assay: SPR (Biacore 3000), ActRII-Fc captured by anti-Fc antibody, ligand in solution, CM-4 chip
# Details: not given
# From the text: (§1) The GE Biacore 3000 was used to measure the kinetics of the interactions between the ActRIIB-Fc variants and the ligands Activin A, Activin B, growth differentiation factor 11 (GDF11), and BMP-9. ActRIIA, ActRIIB, ActRIIB 2.06, ActRIIB 2.11 and ActRIIB 2.12 were recombinant proteins. All other ActRIIB-Fc variants were expressed by transient expression in HEK293 cells and purified from the conditioned media using Protein-A Sepharose chromatography. Flow cells 1-4 were immobilized with anti-human/anti-mouse capture antibodies from GE using the amine coupling kit. The ActRII-Fc proteins were then captured on the chip in flow cells 2-4, with flow cell 1 being left empty as a reference cell to measure and subtract any nonspecific binding. HBS-EP+ buffer from GE Healthcare™ was used as a running buffer. Each ligand was run in a duplicate concentration series at 40 μl/min to avoid mass transport effects. All data was collected on a CM-5 chip except for GDF-11, which used CM-4. The data was analyzed using Scrubber2 by BioLogic™ Software to calculate the KD of each interaction (Table 3).
Kd [pM],binding result,Binder
240,,B1
130,,B2
,no binding,B3
,no binding,B4
,no binding,B5
,no binding,B6
27,,B7
,no binding,B8
,no binding,B9
,no binding,B10
,no binding,B11
530000,,B12

# Molecular target: T1, extracellular ActRIIB (SEQ ID NO: 17) …
# Assay: as above
# Details: not given
# From the text: as §1
row,Kd [pM],Binder
1,120,B13

# Molecular target: B19
# Assay: as above
# Details: not given
# From the text: as §1
row,Kd [pM],Binder
1,81,B13

# Molecular target: T2, BMP-9, Q9UK05
# Assay: SPR (Biacore 3000), ActRII-Fc captured by anti-Fc antibody, ligand in solution
# Details: remark: other sources report otherwise
row,Kd [pM],Binder
1,88000,B10

# Molecular target: T1, extracellular ActRIIB (SEQ ID NO: 17) …
# Assay: as above
# Details: not given
# From the text: as §1
row,Kd [pM],Binder
1,280,B14
2,63,B15
3,23,B16

# Molecular target: B15
# Assay: as above
# Details: not given
# From the text: as §1
Kd [pM],binding result,Binder
100,,B17
450,,B18
780,,B1
140,,B2
1000,,B19
,no binding,B3
,no binding,B4
,no binding,B5
,no binding,B6
53,,B7
,no binding,B8
,no binding,B9
,no binding,B10
,no binding,B11
390000,,B12

# Molecular target: B19
# Assay: as above
# Details: not given
# From the text: as §1
row,Kd [pM],Binder
1,25000,B14

# Molecular target: B14
# Assay: as above
# Details: not given
# From the text: as §1
Kd [pM],binding result,Binder
440,,B17
1700,,B18
2700,,B1
31000,,B2
,no binding,B3
,no binding,B4
,no binding,B5
,no binding,B6
300,,B7
,no binding,B8
,no binding,B9
,no binding,B11
28000,,B12

# Molecular target: B16
# Assay: as above
# Details: not given
# From the text: as §1
Kd [pM],binding result,Binder
160,,B17
280,,B18
370,,B1
160,,B2
370,,B19
,no binding,B3
,no binding,B4
,no binding,B5
,no binding,B6
100,,B7
,no binding,B8
,no binding,B9
,no binding,B10
,no binding,B11
400000,,B12
